In the nanobody polyreactivity screen of Harvey et al. (2022):

Assay: yeast display, Sf9 membrane polyspecificity reagent, FACS + sequencing; frameworks hold sequencing errors
In short: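 Polyreactivity labels are assigned by the sorting gate from which each nanobody was recovered. The gates were low and high (top ~1%), set on anti-HA fluorescence for expression and streptavidin fluorescence for reagent binding. Before sorting, galactose-induced (36–48 hours) yeast display cells were stained for 1 hour at 4 °C with 10% biotinylated, detergent-solubilized Sf9 membrane reagent.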

Sequence | polyreactivity (PSR sort gate)
QVQLVESGGGLVQAGGSLRLSCAASGNIFSYYAIGSYRHAPRKEREFVAANDWNGGTTYYADSVKGRFTISRDNAKNTVYLQMNSLKPEDTAVYYCAAEYGTWYIPEGEYWGQGTQVTVSS | high polyreactivity
QVQLVESGGGLVQAGGSLRLSCAASGNIFTIYAMGWYRQAPGKERELVAAIDSDGTTYYADSVKGRFTISRYNAKNTVYLQMNSLKPEDTAVYYCAAGGRSVRYNYWGQGTQVTVSS | high polyreactivity
QVQLVESGGGLVQAGGSLRLSCAASGNIFTKYAMGWYRPAPGKERELVAAITWSGGSTYYADSVKGRFTISRDNAKNTVYLRMNSLKPEDTAVYYCATAHGFRRDKPYDYWGQGTQVTVSS | high polyreactivity
QVQLVESGGGLVQAGGSLRLSCAASGNIFTYYAMGWYRQAPGKERELVAAIRWRSGSTYYADSVKGRFTISRDNAKNTVYLQMNSLKPEDTAVYYCAADGTPYEYDYWGHGTQVTVSS | low polyreactivity
QVQLVESGGGLVQAGGSLRLSCAASGNIFTYYVMGWYRQAPGKQRELVAAISRRGGSTYYADSVKGRFIISRDNAKHTVYLQMNSLKPEDTAVYYCAKKYPRDMDYWGQGTQVTVSS | high polyreactivity
QVQLVESGGGLVQAGGSLRLSCAASGNIFVGNDMGWYRQAPGKERELVAAISSGDTTSYADSVKGRFTISRDNAKNTVYLQMNSLKPEDTAVYYCNTDAPYLLWFTNRYDYWGQGTQVTVSS | low polyreactivity
QVQLVESGGGLVQAGGSLRLSCAASGNIFVPNAMGWYRQAPGKERELVAAIRRGGSTNYADSVKGRFTISRDNAKNTVYLQMNSLKPEDTAVYYCAAYYTYLYHYGTFKIYNYWGQGTQVTVSS | low polyreactivity
QVQLVESGGGLVQAGGSLRLSCAASGNIFWLNAMGWYRQAPGKEREFVADITWSTGSTYYADSVKGRFTISRDNAKNTVYLQMNSLKPEDTAVYYCAADDGYFNYLILRFKYLYDYWGQGTQVTVSS | low polyreactivity
QVQLVESGGGLVQAGGSLRLSCAASGNIFWWNAMGWYREATRKERELVAAITSDSTTYYADSVKGRFTISRDNAKNTVYLQMKSLKPEDTAVYYCAAYSYGGQGVDYGYWGQGTQVTVSS | low polyreactivity
QVQLVESGGGLVQAGGSLRLSCAASGNIFYANDMGWYIQAPGKERELVAAITGSGGSTYYADSVKGRFTISRDNAKNTVYLQMDSLKPEDTAVYYCATPYDIQWASESHDSWGQGTQVTVSS | low polyreactivity
QVQLVESGGGLVQAGGSLRLSCAASGNIFYAYDMGWYRQAPGKERELVAAITNGDSTDYADSVKGRFTISRDNAKNTVYLQMNSLKPEDTAVYYCATDIHSVHNNRDKHDYDYWGQGTQVTVSS | low polyreactivity
QVQLVESGGGLVQAGGSLRLSCAASGNIFYINTMGWYRQEPGKERELVDAIDASDGSTYYADSVKGRFTISRDNAKNTVYLQMNSLKPEDTAVYYFASRRGYDSVYYFYTLWYYYWGQGTQVTVSS | low polyreactivity
QVQLVESGGGLVQAGGSLRLSCAASGNIFYLYAMGCYRQAPGKEREFSTSYADSVKGRFTISRDNAKNTVYLQMNSLKPEDTAVYYCAAYKSRGPYYYLFDYWGQGTQVTVSS | low polyreactivity
QVQLVESGGGLVQAGGSLRLSCAASGNIFYRNGMGWYRQAPGKEREFVAAISRRGGSTYYADSVKGRFTISRDNAKNTVYLQMNSLKPEDTAVYYCATRYWPTNKGEYWGQGTQVTVSS | high polyreactivity
QVQLVESGGGLVQAGGSLRLSCAASGNIFYSYAMGWYRQAPGKERELVAAISSSGGRTYYADSVKGRFTISRDNAKNTVYLQMNSLKPEDTAVYYCNAYVQVLRYVFGRPTVYPYDYWGQGTQVTVSS | high polyreactivity
QVQLVESGGGLVQAGGSLRLSCAASGNIFYTNAMGWYRQAPGKERELVAAISRSGGRTYYADSVKGRFTISRDNAKNTVYLQMNSLKPEDTAVYYCAKQLYSPYKQRGYRLSPYEYWGQGTQVTVSS | low polyreactivity

Sequence | polyreactivity (PSR sort gate)
QVQLVESGGGLVQAGGSLRLSCAASGNIFYVYLMGWYRQAPGKERELVASITSGASTYYADSVKGRFTISRDNAKNTVYLQMNSLKPEDTAVYYCAAEALGVAGDYSTLYIYDYWGQGTQVTVSS | low polyreactivity
QVQLVESGGGLVQAGGSLRLSCAASGNIFYYYAMGWYRQAPGKERELVADITSGGDTDYADSVKGRFTISRDNAKNTVYLQMNSLKPEDTAVYYCNAEYYFHVTYDYWGQGTQVTVSS | low polyreactivity
QVQLVESGGGLVQAGGSLRLSCAASGNIIDFYAMGWYRQAPGKERELVAAITSGGSTNFADSVKGRFTISRDNAKNTVYLQMNSLKPEDTAVYYCAARQWFSHRRWGGSRYDYWGQGTQVTVSS | high polyreactivity
QVQLVESGGGLVQAGGSLRLSCAASGNILIGNVMGWYRPAPGKERELVAAITSGGDTYYADSVKGRFTITRDNAKNTVYLQMNSLKPEDTAVYYCAADRPGQPKYEYWGQGTQVTVSS | low polyreactivity
QVQLVESGGGLVQAGGSLRLSCAASGNISPGNVMGWYRQAPGKERELVAAITISGGSTYYADSVKGRFTISRDNAKNTVYLQMNSLKPEDTAVYYCAKRTKFYYTGSGYGKYYYWGQGTQVTVSS | high polyreactivity
QVQLVESGGGLVQAGGSLRLSCAASGNLFDYYAMGWYRQAPGKERELVAAISTGTSTYADSVKGRFTISRDNAKNTVYLQMNSLKPEDTAVYYCAADVGIRPLNYHPYNYWGQGTQVTVSS | low polyreactivity
QVQLVESGGGLVQAGGSLRLSCAASGNLFYGYAMGWYRQAPGKERELVAAISGSSTYYADSVKGRFTISRDNAKYTVYLQMNSLKPEDTAVYYCAVPQYLYLQAGHGFRYYYWGQGTQVTVSS | high polyreactivity
QVQLVESGGGLVQAGGSLRLSCAASGNNFVYNPMGWYRPAPGKERELVAAIDSGGSTNYADSVKGRFTISRDNAKNTVYLQMNSLKPDDTAVYYCAADYFSTYRTIYYYWGQGTQVTVSS | low polyreactivity
QVQLVESGGGLVQAGGSLRLSCAASGNNFWWNDMGWYRHAPGKERELVAAISWRGSSTYYADSVKGRFTISRDNAKYTVYLQMNSLKPEDSAVYYCAKPDRTCWLDGDYWGQGTQVTVSS | low polyreactivity
QVQLVESGGGLVQAGGSLRLSCAASGNNFYNNAMGWYRQAPGKERELVATISRRGGRTYYADSVKGRFTISRDNAKNTVYLQMNSLKPEDTSVYYCNARFHGDYDYWGQGTQVTVSS | high polyreactivity
QVQLVESGGGLVQAGGSLRLSCAASGNNFYVYAMGWYRQATGKERELVAAIRWSGGSTYYADSVKGRFTISRDNGKNTVYLQMNSLKPEDTAVYYCAADYYLYEYEYWGQGTQVTVSS | high polyreactivity
QVQLVESGGGLVQAGGSLRLSCAASGNPFTWYTMGWYRPAPGKERDLVAVSTSDGSKYYADSVKGRFTISRDNAKNTVYLQMNSLKPEDTAVYYCNAGGGTNYGSGYWYGYYYWGQGTQVTVSS | low polyreactivity
QVQLVESGGGLVQAGGSLRLSCAASGNSFPYYDMGWYRQAPGKERELVAAITSSASGTYYADSVKGRFTISRDNAKNTVYLQMNSLKPEDNAVYYCAAGVFFFTFDYWGQGTQVTVSS | low polyreactivity
QVQLVESGGGLVQAGGSLRLSCAASGNTDVGYAMGWYRQAPGKETEFVAAISSRTGRTYYADTVKGRFTISRDNAKNTVFLQMISLKPEDTAVYYCAAVRGAPRYRYDYWGQGTQVTVSS | high polyreactivity
QVQLVESGGGLVQAGGSLRLSCAASGNTFAENAMGWYRQAPGKERELVDAISNGGTTNYADSVKGRFTISRDNAKNTVYLQMNSLKPEDTAVYYCNAKFGISQPGHSGLLKMDYWGQGTQVTVSS | low polyreactivity
